Reference: patent US20110091994A1, “Methods for Screening Compounds for Treating and/or Preventing an Hepatitis C Virus Infection” (priority 2008, published 2011)
Where two headings read alike, the source gives them in different places.

How the values were obtained:
[1] = biological target: T1, HCV proteins (Hepatitis C virus genotype 1b, UniProt Q9WMX2); test: Validation by Y2H pairwise matrices; assay type: binding;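 note: yeast two-hybrid pairwise tests of interactions first found in Y2H screens of HCV bait proteins against human cDNA libraries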
T1 construct: expressed in transfected cells

[2] = tested on: HCV ORFs (Gal4-DB fusions); assay type: binding, HCV genotype 1b, isolate con1; settings: human protein listed by gene symbol; the value names the HCV protein it interacts with
[3] = biological target: T2, HCV ORFs (Gal4-DB fusions) (Hepatitis C virus genotype 1b, UniProt Q9WMX2); assay type: binding, HCV genotype 1b, isolate con1; settings: human protein as prey
T2 construct: expressed in transfected cells; host or cells: Saccharomyces cerevisiae MAV203 (IMAP1) / AH109 (IMAP2)

[4] = validation of interaction with HCV protein NS3
[5] = validation of interaction with HCV protein CORE
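Throughout, for IMAP Y2H IMAP1 (number of IST): yeast two-hybrid screens using HCV genotype 1b proteins fused to Gal4-DB as baits against prey cDNA libraries from human spleen and foetal brain, IMAP1 via transformation and IMAP2 via mating.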
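Throughout, for IMAP Y2H IMAP2 (number of IST): yeast two-hybrid screens using HCV genotype 1b proteins fused to Gal4-DB as baits against prey cDNA libraries from human spleen and foetal brain, IMAP1 via transformation and IMAP2 via mating.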
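Throughout, for Interaction with viral protein: yeast two-hybrid screens using HCV genotype 1b proteins fused to Gal4-DB as baits against prey cDNA libraries from human spleen and foetal brain, IMAP1 via transformation and IMAP2 via mating.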

| Substance | Y2H matrices [1, 4] | Interaction with viral protein [2] | IMAP Y2H IMAP1 (number of IST) ([3]; HCV protein NS3 as bait) | further results |
| --- | --- | --- | --- | --- |
| RICS | + | NS3 | 3 | IMAP Y2H IMAP2 (number of IST) ([3]; HCV protein NS3 as bait): 1 |
| RINT1 | + | NS3 | 1 | – |
| RNF31 | + | NS3 and CORE | 1 | Y2H matrices [1, 5]: +; IMAP Y2H IMAP1 (number of IST) ([3]; HCV protein CORE as bait): 1 |
| RUSC2 | + | NS3 | 21 | IMAP Y2H IMAP2 (number of IST) ([3]; HCV protein NS3 as bait): 1 |
| SBF1 | + | NS3 | 1 | – |
| SLIT1 | + | NS3 | 7 | – |
| SMYD3 | – | NS5A | – | Y2H matrices ([1]; interaction with HCV protein NS5A): +; IMAP Y2H IMAP1 (number of IST) ([3]; HCV protein NS5A as bait): 1 |
| STAB1 | + | NS3 | 4 | – |
| STAT3 | + | NS3 | 1 | – |
| SVEP1 | + | NS3 | 3 | – |
| TAF1 | + | NS3 | 2 | – |
| TGFB1I1 | + | NS3 | 1 | – |
| TRIM27 | + | NS3 and NS2 | 1 | IMAP Y2H IMAP2 (number of IST) ([3]; HCV protein NS2 as bait): 1 |
| TRIO | + | NS3 | 1 | IMAP Y2H IMAP2 (number of IST) ([3]; HCV protein NS3 as bait): 1 |
| TRIP11 | + | NS3 | 1 | – |
| UBQLN1 | – | NS4A | – | Y2H matrices ([1]; interaction with HCV protein p7): +; Y2H matrices ([1]; validation of interaction with HCV protein NS4A): +; IMAP Y2H IMAP1 (number of IST) ([3]; HCV protein NS4A as bait): 2; IMAP Y2H IMAP1 (number of IST) ([3]; HCV protein p7 as bait): 3 |
| VCAN | + | NS3 | 1 | – |
| VIM | + | NS3 | 32 | – |
| VWF | + | NS3 and CORE | 26 | Y2H matrices [1, 5]: +; IMAP Y2H IMAP1 (number of IST) ([3]; HCV protein CORE as bait): 2 |
